Results reported in article PMC8748511 (2022).

Molecular target: SARS-CoV-2 spike receptor binding domain (RBD) (SARS-CoV-2, UniProt P0DTC2)
Experiment: SPR

B1: Fu2 (VHH)
VHH: QVQLVESGGGLVQPGGSLRLSCAASGFTLDDYAIGWFRQAPGKEREGVSFITSSDGSTYYVDSVKGRFTISRDNAKNTVYLQMNSLTPEDTAIYYCAVGPSFSYTGSTYYRSELPWDYDYWGQGTQVTVSS
Kd: 0.118 nM
